We go through two molecules from US9120869 (UNIVERSITY OF SOUTH FLORIDA A FLORIDA NON PROFIT, dated 2015).

Test [1] addresses T1, Duffy antigen receptor for chemokines (DARC) on Duffy-positive human erythrocytes (human, UniProt Q16570 1-336).
T1 construct: whole, on cells; also called Duffy blood group antigen; Duffy antigen surface receptor
T1 sequence: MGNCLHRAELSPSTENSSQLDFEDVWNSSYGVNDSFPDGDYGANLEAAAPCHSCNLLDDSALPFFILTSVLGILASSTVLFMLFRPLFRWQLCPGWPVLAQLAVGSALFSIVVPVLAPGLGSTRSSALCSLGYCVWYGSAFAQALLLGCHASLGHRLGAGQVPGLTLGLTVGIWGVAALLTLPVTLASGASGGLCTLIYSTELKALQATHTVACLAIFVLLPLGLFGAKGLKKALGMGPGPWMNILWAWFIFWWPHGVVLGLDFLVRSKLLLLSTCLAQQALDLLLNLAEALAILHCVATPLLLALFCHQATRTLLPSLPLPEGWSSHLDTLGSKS
The test is described as follows: erythrocyte binding assay, Western blot. A general note: Immunoblotting shows a protein as a band on a membrane.

For test [2], the target named is T1, Duffy antigen receptor for chemokines …. The test is described as follows: COS7 erythrocyte-binding assay (rosettes).

B1: recombinant DBPII-Sal1 (refolded ligand domain, region II, of Plasmodium vivax Duffy binding protein, Sal1 variant) (ligand)
chain: NHAFLQNTVMKNCNYKRKRRERDWDCNTKKDVCIPDRRYQLCMKELTNLVNNTDTNFHRDITFRKLYLKRKLIYDAAVEGDLLLKLNNYRYNKDFCKDIRWSLGDFGDIIMGTDMEGIGYSKVVENNLRSIFGTDEKAQQRRKQWWNESKAQIWTAMMYSVKKRLKGNFIWICKLNVAVNIEPQIYRWIREWGRDYVSELPTEVQKLKEKCDGKINYTDKKVCKVPPCQNACKSYDQWITRKKNQWDVLSNKFISVKNAEKVQTAGIVTPYDILKQELDEFNEVAFENEINKRDGAYIEL
notes: also called recombinant Sal1; rSal1; not shown: C-terminal histidine tag from pET21a+
Consider B1, for which the binding result in test [1] was “binds”.

B2: COS7-expressed PvDBP-RII variant Sal 1 (ligand)
chain: NHAFLQNTVMKNCNYKRKRRERDWDCNTKKDVCIPDRRYQLCMKELTNLVNNTDTNFHRDITFRKLYLKRKLIYDAAVEGDLLLKLNNYRYNKDFCKDIRWSLGDFGDIIMGTDMEGIGYSKVVENNLRSIFGTDEKAQQRRKQWWNESKAQIWTAMMYSVKKRLKGNFIWICKLNVAVNIEPQIYRWIREWGRDYVSELPTEVQKLKEKCDGKINYTDKKVCKVPPCQNACKSYDQWITRKKNQWDVLSNKFISVKNAEKVQTAGIVTPYDILKQELDEFNEVAFENEINKRDGAYIEL
notes: The (mut) plasmid differs from (original) by a PvuII to EcoRI site change; also called DBPII-Sal1 expressed on surface of COS7 cells; pEGFP-Sal 1 (original); not shown: C-terminal GFP tag (pEGFP-N1)
With B2, in test [2], the binding result is reported as “binds”.
